Residue numbers refer to the chain shown, from its start.

To fix the notation:
B1: Chimeric C2C1A1A1 (antibody, human IgG4 S228P, kappa, V domains shown)
VH: EVQLVESGGGLVQPGGSLKLSCAASGFTFSTYGMSWVRQTPDKRLELVATINSNGGSTSYPDSVKGRFTISRDNAKNTLYLQMSSLKSEDTAMFYCARFFRFRNAMDYWGQGTSVTVSS
VL: DIQMTQSPASLSASVGETVTITCRTSENIYSYLAWYQQKQGKSPQFLVYNAKTLAEGVPSRFSGSGSGTQFSLNINSLQSEDFGSYYCQHYYGPPTWTFGGGTKLEIKR
notes: Mouse variable regions on human IgG4 / kappa constant regions; also called chimeric antibody; Supernatant containing chimeric C2C1A1A1
B2: huC2C1A1A1-V6 (antibody, human IgG4 S228P, kappa, V domains shown)
VH: B1 VH with K19R, T40S, L47W, A49S, S84R, K87R, S88A, M93V, F94Y, S114L
VL: DIQMTQSPSSLSASVGQRVTITCRTSENIYSYLAWYQQKQGKPPRFLIYNAKTLAEGVPSRFSGSGSGTEFTLTITSLQAEDFGVYYCQHYYGPPTWTFGPGTKLEIKR
notes: Humanized IgG4/kappa
B3: huC2C1A1A1-V4 (antibody, human IgG4 S228P, kappa, V domains shown)
VH: EVQLVESGGGLVQPGGSLRLSCAASGFTFSTYGMSWVRQAPGKGLVWVSTINSNGGSTSYPDSVKGRFTISRDNAKNTLYLQMNSLRAEDTAVYYCARFFRFRNAMDYWGQGTLVTVSS
VL: DIQMTQSPSSLSASVGDRVTITCRTSENIYSYLAWYQQKPGKAPKFLIYNAKTLAEGVPSRFSGSGSGTDFTLTISSLQPEDFATYYCQHYYGPPTWTFGQGTKVEIKR
notes: Humanized IgG4/kappa
B4: huC2C1A1A1-V10 (antibody, human IgG4 S228P, kappa, V domains shown)
VH: B3 VH with W47L, S49A
VL: B2 VL
notes: Humanized IgG4/kappa
B5: huC2C1A1A1-V12 (antibody, human IgG4 S228P, kappa, V domains shown)
VH: B3 VH with W47L, S49A
VL: B3 VL
notes: Humanized IgG4/kappa
B6: huC2C1A1A1-V9 (antibody, human IgG4 S228P, kappa, V domains shown)
VH: B3 VH with W47L, S49A
VL: B3 VL with F46L
notes: Humanized IgG4/kappa
B7: huC2C1A1A1-V3 (antibody, human IgG4 S228P, kappa, V domains shown)
VH: B3 VH
VL: B3 VL with I48V
notes: Humanized IgG4/kappa
B8: huC2C1A1A1-V2 (antibody, human IgG4 S228P, kappa, V domains shown)
VH: B3 VH
VL: B2 VL
notes: Humanized IgG4/kappa
B9: huC2C1A1A1-V5 (antibody, human IgG4 S228P, kappa, V domains shown)
VH: B3 VH with A40S, G42D, G44R, V46E, N84R
VL: B3 VL with F46L
notes: Humanized IgG4/kappa
B10: huC2C1A1A1-V7 (antibody, human IgG4 S228P, kappa, V domains shown)
VH: B3 VH with A40S, G42D, G44R, V46E, N84R
VL: B3 VL with I48V
notes: Humanized IgG4/kappa
B11: huC2C1A1A1-V16 (antibody, human IgG4 S228P, kappa, V domains shown)
VH: B3 VH with S49A
VL: B3 VL
notes: Humanized IgG4/kappa
B12: huC2C1A1A1-V1 (antibody, human IgG4 S228P, kappa, V domains shown)
VH: B3 VH
VL: B3 VL with F46L
notes: Humanized IgG4/kappa
B13: huC2C1A1A1-V13 (antibody, human IgG4 S228P, kappa, V domains shown)
VH: B3 VH with S49A
VL: B3 VL with F46L
notes: Humanized IgG4/kappa
B14: huC2C1A1A1-V15 (antibody, human IgG4 S228P, kappa, V domains shown)
VH: B3 VH with S49A
VL: B3 VL with I48V
notes: Humanized IgG4/kappa
B15: huC2C1A1A1-V11 (antibody, human IgG4 S228P, kappa, V domains shown)
VH: B3 VH with W47L, S49A
VL: B3 VL with I48V
notes: Humanized IgG4/kappa
B16: huC2C1A1A1-V14 (antibody, human IgG4 S228P, kappa, V domains shown)
VH: B3 VH with S49A
VL: B2 VL
notes: Humanized IgG4/kappa
B17: huC2C1A1A1-V8 (antibody, human IgG4 S228P, kappa, V domains shown)
VH: B3 VH with A40S, G42D, G44R, V46E, N84R
VL: B3 VL
notes: Humanized IgG4/kappa
B18: Mouse C2C1A1A1 (antibody, V domains shown)
VH: B1 VH
VL: DIQMTQSPASLSASVGETVTITCRTSENIYSYLAWYQQKQGKSPQFLVYNAKTLAEGVPSRFSGSGSGTQFSLNINSLQSEDFGSYYCQHYYGPPTWTFGGGTKLEIK

The target in the first assay is T1, recombinant human IL4Rα-his protein (human, UniProt P24394 26-232, biotinylated in the capture ELISA and the benchmark blocking ELISA).
T1 construct: also called biotinylated human IL4Rα-his protein
The experiment in a line: SPR Biacore, mAb captured from supernatant, IL4Rα-his analyte.
B1: the Kd was 111 pM and the koff worked out at 4.04e-05 s⁻¹.

A further assay deals with T1, recombinant human IL4Rα-his protein. The experiment in a line: SPR Biacore, mAb captured, IL4Rα-his analyte. Here is the method: Briefly, a goat anti-human IgG (GE Healthcare, Cat. No. BR100839, Human Antibody Capture Kit) was covalently attached to a CMS chip (carboxymethylated dextran-coated chip) via the primary amine group using a standard amine coupling kit supplied by Biacore (GE Healthcare, Pittsburgh, PA, USA). Unreacted portions on the biosensor surface were blocked with ethanolamine. Then, the anti-IL4Rα antibody in the present disclosure at 66.67 nM and an anti-IL4Rα antibody benchmark (dupilumab, or DUPIXENT® or BM) at 10 μg/mL were directed through the chip at a flow rate of 10 μL/min. A recombinant human IL4Rα-his protein (prepared in-house, amino acid sequence set forth in SEQ ID NO: 15), a cynomolgus monkey IL4Rα-his protein (Sino Biological Inc., Cat. No. 90897-008H), or a marmoset monkey IL4Rα-his protein (customized product from Sino Biological Inc., denoted as cal-IL4Rα-his, amino acid sequence set forth in SEQ ID NO: 16) serially diluted with an HBS EP buffer (supplied by Biacore) was directed through the chip at a flow rate of 30 μIJmin. The antigen-antibody binding kinetics was tracked for 2 min and the dissociation kinetics was tracked for 10 min. The association and dissociation curves were fitted according to a 1:1 Langmuir binding model using BIA evaluation software, and the KD, Kₐ, and Kd values were determined.
According to the protocol in the examples above, the binding affinity of the humanized antibodies to human IL4Rα was assessed by the BIAcore technique, and the Kₐ, Kd, and KD values were determined and summarized in Table 3.
As to B1, the “Dissociation (%)” value was -1.94%, the “End (RU)” value is 65.8 RU, the Kd was under 30.4 pM and the “Start (RU)” value turned out to be 67.1 RU. The koff is under 1e-05 s⁻¹. In the case of B2, the “Dissociation (%)” value was -0.59%.

Turning to B3, the “Dissociation (%)” value turned out to be 0.2%.

On to B4, for which the “Dissociation (%)” value was -1.54%. Take B5: the “Dissociation (%)” value is -1.88%. In the case of B6, the “Dissociation (%)” value was -0.24%. For the molecule B7, the “Dissociation (%)” value was -0.62%.

As to B8, the “Dissociation (%)” value was -0.2%.

B9: the “Dissociation (%)” value is -2.28%. For B10, the “Dissociation (%)” value was -0.66%.

Regarding B11, the “Dissociation (%)” value was -0.42%. Take B12: the “Dissociation (%)” value is 0.23%. As to B13, the “Dissociation (%)” value stood at 0.82%. Consider B14, for which the “Dissociation (%)” value came to 0.29%. The same measure, in the same setting: the figure for B15 is -0.92%; for B16 it is 0.8%.

B17: the “Dissociation (%)” value is -1.23%.

The target of a further assay is T2, human IL4Rα on HEK293T-IL4Rα-STAT6-STAT6LUC-LB2 cells (human, UniProt P24394 26-825). The experiment in a line: cell-based or functional assay.
In the case of B1, the “Inhibition of IL4-induced STAT6 phosphorylation (IC50, nM)” value came out at 0.26 nM and the “Inhibition of IL13-induced STAT6 phosphorylation (IC50, nM)” value turned out to be 0.39 nM. On to B14, for which the “Inhibition of IL4-induced STAT6 phosphorylation (IC50, nM)” value is 0.61 nM and the “Inhibition of IL13-induced STAT6 phosphorylation (IC50, nM)” value worked out at 0.6 nM. For B16, in that order: 0.64 nM and 0.73 nM.

The next assay has as its target T2, human IL4Rα on …. The experiment in a line: cell-based or functional assay. The source holds these as a separate data set.
For B18, the “Inhibition of IL4-induced STAT6 phosphorylation (IC50, nM)” value is 0.19 nM and the “Inhibition of IL13-induced STAT6 phosphorylation (IC50, nM)” value was determined as 0.27 nM. For the molecule B1, the “Inhibition of IL4-induced STAT6 phosphorylation (IC50, nM)” value is 0.27 nM and the “Inhibition of IL13-induced STAT6 phosphorylation (IC50, nM)” value was 0.56 nM.
